In experiment [1] the target is C5b-8 initiator complex, comprised of C5b6 in complex with C7 and C8 (human) (UniProt P01031). The experiment is described as follows: rapid atomic force microscopy imaging; supported bilayers of E. coli lipid extract on mica; proteins injected one after the other in situ without wash steps, 80 nM C5b6, C7 and C8, 1.4 µM C9; 30 °C; 6.5 s per frame; 20 mM HEPES, 120 mM NaCl, pH 7.4; chamber passivated with BSA.

Experiment [2] addresses C5b-8(C9)n (1 ≤ n < 18) (human) (UniProt P01031). Described as above.

Experimental findings from publication PMC6502846 are described below.

What is called kon is the second-order rate constant of association. A lower kon goes with slow association.

Chain of C9 (P02748 22-559): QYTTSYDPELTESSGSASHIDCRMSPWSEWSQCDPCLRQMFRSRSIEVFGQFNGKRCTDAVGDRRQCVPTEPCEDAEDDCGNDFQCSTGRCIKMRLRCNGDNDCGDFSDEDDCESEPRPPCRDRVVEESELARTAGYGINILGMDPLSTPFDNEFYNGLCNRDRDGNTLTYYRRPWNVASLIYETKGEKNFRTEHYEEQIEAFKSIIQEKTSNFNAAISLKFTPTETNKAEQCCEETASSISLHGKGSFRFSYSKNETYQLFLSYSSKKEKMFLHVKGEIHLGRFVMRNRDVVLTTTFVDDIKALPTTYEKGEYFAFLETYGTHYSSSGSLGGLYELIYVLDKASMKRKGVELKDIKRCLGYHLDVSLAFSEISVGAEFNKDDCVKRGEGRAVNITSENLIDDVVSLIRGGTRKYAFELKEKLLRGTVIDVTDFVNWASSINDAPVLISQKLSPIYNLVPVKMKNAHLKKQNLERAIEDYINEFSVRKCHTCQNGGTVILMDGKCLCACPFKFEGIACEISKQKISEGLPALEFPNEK

For the substance “C9 (from UniProt P02748 22-559) (natural protein)”, in experiment [1], the characteristic initiation time τ init is 912 s and the kon was found to be 780 M⁻¹ s⁻¹. Also, in experiment [2], the association rate constant (kon) stood at 108000 M⁻¹ s⁻¹; the τ olig, time to add 17 copies of C9 after the initiation event came to 112 s; the τ+, average time per addition of each of the remaining 17 C9 subunits came out at 6.6 s.
